Assay results taken from patent US20160002357A1 (Pfizer, published 2016).
Substitutions are numbered along the chain they refer to. Read-outs that look alike come from different tables or passages of the source.

B1: anti-P-cadherin scFv 153 (parental clone 153), displayed on phage (scFv, V domains shown)
VH: EVQLVQSGAEVKKPGASVKVSCKASGYTFTSYGISWVRQAPGQGLEWMGWISAYNGNTNYAQKLQGRVTMTTDTSTSTAYMELRSLRSDDTAVYYCATIDTANAFGIWGQGTMVTVSS
VL: QSVLTQPPSVSAAPGQKVTISCSGSSSNIGNNYVSWYQQLPGTAPKLLIYDNNKRPSGIPDRFSGSKSGTSATLGITGLQTGDEADYYCGTWDSSLSGVVFGGGTKLTVL
notes: scFv expressed on the surface of phage
B2: anti-P-cadherin scFv 153 alanine-mutant L3.1-Ala (scFv, V domains shown)
VH: B1 VH
VL: B1 VL with G90A
notes: scFv on phage
B3: anti-P-cadherin scFv 153 alanine-mutant L3.6-Ala (scFv, V domains shown)
VH: B1 VH
VL: B1 VL with S95A
notes: scFv on phage
B4: anti-P-cadherin scFv 153 alanine-mutant L3.3-Ala (scFv, V domains shown)
VH: B1 VH
VL: B1 VL with W92A
notes: scFv on phage
B5: anti-P-cadherin scFv 153 alanine-mutant L3.7-Ala (scFv, V domains shown)
VH: B1 VH
VL: B1 VL with L96A
notes: scFv on phage
B6: anti-P-cadherin scFv 153 alanine-mutant L3.8-Ala (scFv, V domains shown)
VH: B1 VH
VL: B1 VL with S97A
notes: scFv on phage
B7: anti-P-cadherin scFv 153 alanine-mutant L3.4-Ala (scFv, V domains shown)
VH: B1 VH
VL: B1 VL with D93A
notes: scFv on phage
B8: anti-P-cadherin scFv 153 alanine-mutant L3.2-Ala (scFv, V domains shown)
VH: B1 VH
VL: B1 VL with T91A
notes: scFv on phage
B9: anti-P-cadherin scFv 153 alanine-mutant L3.5-Ala (scFv, V domains shown)
VH: B1 VH
VL: B1 VL with S94A
notes: scFv on phage
B10: anti-P-cadherin scFv 153 alanine-mutant L2.7-Ala (scFv, V domains shown)
VH: B1 VH
VL: B1 VL with S57A
notes: scFv on phage
B11: anti-P-cadherin scFv 153 alanine-mutant L2.5-Ala (scFv, V domains shown)
VH: B1 VH
VL: B1 VL with R55A
notes: scFv on phage
B12: anti-P-cadherin scFv 153 alanine-mutant L3.9-Ala (scFv, V domains shown)
VH: B1 VH
VL: B1 VL with G98A
notes: scFv on phage
B13: anti-P-cadherin scFv 153 alanine-mutant L3.10-Ala (scFv, V domains shown)
VH: B1 VH
VL: B1 VL with V99A
notes: scFv on phage
B14: anti-P-cadherin scFv 153 alanine-mutant L2.6-Ala (scFv, V domains shown)
VH: B1 VH
VL: B1 VL with P56A
notes: scFv on phage
B15: anti-P-cadherin scFv 153 alanine-mutant L3.11-Ala (scFv, V domains shown)
VH: B1 VH
VL: B1 VL with V100A
notes: scFv on phage
B16: 153 EK-DART (P-CAD 153 x CD3-2) (bispecific antibody)
chain 1: QSVLTQPPSVSAAPGQKVTISCSGSSSNIGNNYVSWYQQLPGTAPKLLIYDNNKRPSGIPDRFSGSKSGTSATLGITGLQTGDEADYYCGTWDSSLSGVVFGGGTKLTVLGGGSGGGGEVQLVESGGGLVQPGGSLRLSCAASGFTFNTYAMNWVRQAPGKGLEWVARIRSKYNNYATYYADSVKDRFTISRDDSKNSLYLQMNSLKTEDTAVYYCVRHGNFGNSYVSWFAYWGQGTLVTVSSGGCGGGKVAALKEKVAALKEKVAALKEKVAALKE
chain 2: QAVVTQEPSLTVSPGGTVTLTCRSSTGAVTTSNYANWVQQKPGQAPRGLIGGTNKRAPWTPARFSGSLLGGKAALTITGAQAEDEADYYCALWYSNLWVFGGGTKLTVLGGGGSGGGGEVQLVQSGAEVKKPGASVKVSCKASGYTFTSYGISWVRQAPGQGLEWMGWISAYNGNTNYAQKLQGRVTMTTDTSTSTAYMELRSLRSDDTAVYYCATIDTANAFGIWGQGTMVTVSSGGCGGGEVAALEKEVAALEKEVAALEKEVAALEK
B17: 179 EK-DART (bispecific antibody)
chain 1: B16 chain 1 with S26R, N52S, G98S, V99W
chain 2: B16 chain 2 with G224D
B18: 180 EK-DART (bispecific antibody)
chain 1: B16 chain 1 with L4V, G98A, V99Y, G103T, L107V
chain 2: B16 chain 2 with G224D
notes: also called P-CAD 180 EK-DART (CD3-2)
B19: 154 EK-DART (bispecific antibody)
chain 1: B16 chain 1 with G98S, V99Y, G103T, L107V
chain 2: B16 chain 2 with N221T, G224D
B20: 165 EK-DART (bispecific antibody)
chain 1: B16 chain 1 with T81A, G98A, V99Y, G103T, L107V
chain 2: B16 chain 2 with G224D
B21: 177 EK-DART (bispecific antibody)
chain 1: B16 chain 1 with G98A, V99Y, G103T, L107V
chain 2: B16 chain 2 with G224D
notes: the K-coil chain is assembled from parts with CD3-2 VH
B22: 178 EK-DART (bispecific antibody)
chain 1: B16 chain 1 with G98A
chain 2: B16 chain 2 with G224D

Columns and labels:
[1] = target: T1, P-cadherin-ECD1-3-Fc protein (human P-cadherin-Fc) (human, UniProt P22223 108-440); experiment: phage scFv ELISA, coated P-cadherin-ECD1-3-Fc
T1 construct: Construct was expressed with signal peptide and pro-peptide (PACE co-transfected to process the propeptide); not shown: hinge and CH2 and CH3 domains of human IgG1
T1 sequence (P22223 108-440): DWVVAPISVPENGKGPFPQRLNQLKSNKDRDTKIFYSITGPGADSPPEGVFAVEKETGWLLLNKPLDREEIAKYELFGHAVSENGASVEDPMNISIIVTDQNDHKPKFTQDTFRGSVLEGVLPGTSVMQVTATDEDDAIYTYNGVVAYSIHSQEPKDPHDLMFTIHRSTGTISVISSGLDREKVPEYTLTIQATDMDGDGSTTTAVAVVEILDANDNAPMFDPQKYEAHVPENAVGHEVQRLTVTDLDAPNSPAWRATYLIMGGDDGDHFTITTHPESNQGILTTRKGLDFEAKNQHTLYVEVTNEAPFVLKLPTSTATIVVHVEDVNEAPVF
Procedure: (§1) P-cadherin-ECD1-3-Fc protein or negative control protein was coated overnight at 4° C. on 96-well Nunc Maxisorp® plates (Thermo Fisher Scientific, Madison, Conn.) at a concentration of 2 μg/mL in PBS+Ca²⁺ and Mg²⁺. Plates were washed three times using PBS+Ca²⁺ and Mg²⁺ and blocked for 1 hour at room temperature in 3% milk/PBS+Ca²⁺ and Mg²⁺. Phage samples prepared as described above were added to the blocked plates for 1 hour at room temperature. Plates were washed three times with PBS+Ca²⁺ and Mg²⁺ prior to the addition of secondary antibody (anti M13-HRP 1:2000, GE Healthcare, Piscataway, N.J.). Plates were incubated for a further 1 hour at room temperature and washed six times with PBS+Ca²⁺ and Mg²⁺. Signal was developed using TMB (SurModics, Eden Prairie, Minn.), the reaction stopped with H₂SO₄ and the absorbance read at 450 nm on an EnVision® plate reader (Perkin Elmer, Waltham, Mass.).

[2] = target: T1, P-cadherin-ECD1-3-Fc protein (human …); experiment: phage scFv ELISA, coated P-cadherin-ECD1-3-Fc; remark: listed apart in the source
Procedure: ScFvs may be expressed on the surface of a phage particle. To prepare phage expressing scFv on their surface, 96-deep well plates containing 1 mL 2× TY media with 2% glucose/100 μg/mL ampicillin were inoculated with 0.5-1 μL from thawed glycerol stocks (one clone per well) using the QPix™2 Colony picker (Molecular Devices, Sunnyvale Calif.) and grown at 37° C. (900 rpm) for ˜4 hours. Next, 5 μL of a 1:29 dilution of helper phage (8.3×10¹³ pfu) was added and the plates and incubated for a further 30 minutes at 37° C. with no shaking then 1 hour at 300 rpm. Plates were centrifuged and the media was replaced with a kanamycin/non-glucose containing media (2× TY with 50 μg/mL kanamycin and 100 μg/mL ampicillin). Plates were grown overnight at 25° C. (900 rpm), and phage were harvested in the supernatant following centrifugation.
as §1

[3] = target: human P-cadherin, cell surface expressed (human, UniProt P22223 108-829); experiment: cell-based or functional assay
Sequence of human P-cadherin, cell surface expressed (P22223 108-829): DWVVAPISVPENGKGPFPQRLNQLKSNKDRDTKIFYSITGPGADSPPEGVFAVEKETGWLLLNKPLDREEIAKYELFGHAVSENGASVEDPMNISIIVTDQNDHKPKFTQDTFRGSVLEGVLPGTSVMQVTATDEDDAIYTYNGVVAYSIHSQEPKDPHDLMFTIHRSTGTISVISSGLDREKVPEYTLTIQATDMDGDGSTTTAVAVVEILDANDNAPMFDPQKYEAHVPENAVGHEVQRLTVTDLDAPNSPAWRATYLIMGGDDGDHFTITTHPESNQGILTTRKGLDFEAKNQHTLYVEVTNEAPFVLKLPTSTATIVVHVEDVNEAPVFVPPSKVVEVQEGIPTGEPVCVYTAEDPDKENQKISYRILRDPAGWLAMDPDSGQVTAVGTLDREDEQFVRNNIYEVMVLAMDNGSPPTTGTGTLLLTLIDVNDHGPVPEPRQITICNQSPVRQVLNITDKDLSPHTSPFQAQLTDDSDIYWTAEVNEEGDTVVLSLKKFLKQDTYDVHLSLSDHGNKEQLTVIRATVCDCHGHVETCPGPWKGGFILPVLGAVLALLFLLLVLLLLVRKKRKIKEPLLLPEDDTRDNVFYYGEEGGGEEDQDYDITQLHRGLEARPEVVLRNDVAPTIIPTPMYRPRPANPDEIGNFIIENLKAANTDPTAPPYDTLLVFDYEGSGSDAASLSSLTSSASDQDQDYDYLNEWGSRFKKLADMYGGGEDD

[4] = target: T2, cynomolgus monkey P-cadherin ECD (cynomolgus monkey); experiment: SPR Biacore
T2 construct: extracellular domain; also called cyno P-cadherin ECD; Cyno P-cadherin
Procedure: Binding affinity of EK-DART proteins to P-cadherin and CD3 was analyzed by SPR using a BIACORE® 3000 biosensor (GE Healthcare). The antigens huCD3εδ and either human P-cadherin-Fc or human/cynomolgus monkey/murine P-cadherin-ECD were immobilized on the CM-5 sensor chip by amine coupling kit as recommended by the manufacturer. […] All EK-DART proteins in Tables 15 and 16 comprise CD3-2.
All EK-DART proteins in Table 17 comprise CD3-2.

Binder | % of binding of Clone #153 to human P-cadherin-Fc [2] [%] | Human P-cadherin-Fc binding (OD450) [2] [OD450] | Z Score [2] | also measured
B1 | 100 | 1.32 | 0 | % of binding of Clone #153 to human P-cadherin-Fc [1]: 100%; Human P-cadherin-Fc binding (OD450) [1]: 1.32 OD450; Z Score [1]: 0
B2 | 153 | 2.02 | 1.1 | 
B3 | 173 | 2.29 | 1.5 | 
B4 | 14 | 0.18 | -1.8 | 
B5 | 173 | 2.29 | 1.6 | 
B6 | 173 | 2.28 | 1.5 | 
B7 | 70 | 0.92 | -0.6 | 
B8 | 61 | 0.81 | -0.8 | 
B9 | 163 | 2.16 | 1.3 | 
B10 | 163 | 2.16 | 1.3 | 
B11 | 170 | 2.25 | 1.5 | 
B12 | 166 | 2.19 | 1.4 | 
B13 | 141 | 1.86 | 0.9 | 
B14 | 172 | 2.28 | 1.5 | 
B15 | 104 | 1.38 | 0.1 | 
B16 |  |  |  | T cell directed cytotoxicity EC50, H1650 LDH 24 hr 30:1 D41183 [3]: 0.0008 nM; T cell directed cytotoxicity EC50, HCT116 Luc 48 hr 10:1 D43905 [3]: 0.0005 nM
B17 |  |  |  | Kd [4]: 4.17 nM; koff [4]: 0.00458 s⁻¹; kon [4]: 1.11e+06 M⁻¹ s⁻¹
B18 |  |  |  | Kd [4]: 0.966 nM; koff [4]: 0.000744 s⁻¹; kon [4]: 771000 M⁻¹ s⁻¹
B19 |  |  |  | Kd [4]: 3.93 nM; koff [4]: 0.0039 s⁻¹; kon [4]: 1.04e+06 M⁻¹ s⁻¹
B20 |  |  |  | Kd [4]: 0.37 nM; koff [4]: 0.000309 s⁻¹; kon [4]: 834000 M⁻¹ s⁻¹
B21 |  |  |  | Kd [4]: 0.483 nM; koff [4]: 0.000383 s⁻¹; kon [4]: 802000 M⁻¹ s⁻¹
B22 |  |  |  | Kd [4]: 1.31 nM; koff [4]: 0.000216 s⁻¹; kon [4]: 167000 M⁻¹ s⁻¹
